The text below walks through data of patent US20180022808A1.

This experiment addresses recombinant Phl p 2 (Biomay AG) (UniProt P43214). As to the kind of experiment: flow cytometry scatter plot on 16HBE14o- cells pre-incubated with 1 µg of the conjugate at ratio 1:0.25, then 1 µg Phl p 2, rabbit anti-Phl p 2 (FIG. 3 C).
UniProt P43214, sequence (P43214 27-122 limits assumed): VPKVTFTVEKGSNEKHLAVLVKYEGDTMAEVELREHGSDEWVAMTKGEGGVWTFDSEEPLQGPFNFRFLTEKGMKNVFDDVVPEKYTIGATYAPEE

Turning to “P2/ICAM1 bi-specific antibody conjugate (streptavidin-conjugated Phl p 2-specific human IgG1 coupled to biotin-labeled ICAM1-specific mouse IgG1) (from UniProt P22629 37-163) (bispecific antibody)”, the percent of cells with Phl p 2 bound to their cell surface is 50%.
